Results taken from article PMC6147952, “Acylated-acyl carrier protein stabilizes the Pseudomonas aeruginosa WaaP lipopolysaccharide heptose kinase” (Scientific Reports, 2018).

Target: T1, C-terminal hexa-histidine tagged P. aeruginosa WaaP (1–264) (P. aeruginosa, UniProt Q9HUF7 1-264, selenomethionine substituted)
T1 construct: WaaP, lipopolysaccharide core heptose kinase of Pseudomonas aeruginosa (strains derived from PAO1), residues 1-264; A loop (54-72) is disordered in the crystal; also called WaaP-His; LPS heptose kinase WaaP; source: E. coli BL21(DE3)/pLysS, pET21b-waaP, purified (IMAC, Mono-Q, CM-sepharose, Superdex75); not shown: His6, C-terminal, kept
T1 sequence (looked up): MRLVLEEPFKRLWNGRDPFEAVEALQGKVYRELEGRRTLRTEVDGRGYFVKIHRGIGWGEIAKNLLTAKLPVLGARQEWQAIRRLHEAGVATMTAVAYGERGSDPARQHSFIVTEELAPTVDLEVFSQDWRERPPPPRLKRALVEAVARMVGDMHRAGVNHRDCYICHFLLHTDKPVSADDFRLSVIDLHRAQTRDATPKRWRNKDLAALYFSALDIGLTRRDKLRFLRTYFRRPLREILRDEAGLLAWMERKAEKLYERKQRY
Experiment: crystal structure; selenomethionine WaaP-His co-purified with E. coli acyl-ACP; hanging drops at 4 °C, 100 mM HEPES-NaOH pH 7.4, 5% Jeffamine M-600; 2.5 Å
Conditions: both partners purified

B1: E. coli acylated acyl-carrier protein (acyl-ACP) (natural protein, UniProt P0A6A8 1-78, looked up)
chain: MSTIEERVKKIIGEQLGVKQEEVTNNASFVEDLGADSLDTVELVMALEEEFDTEIPDEEAEKITTVQAAIDYINGHQA
modifications: phosphopantetheine on S36 carrying a C16:0 (palmitoyl) or C18:1 acyl chain (palmitoyl modelled in the crystal); selenomethionine
notes: acyl carrier protein of E. coli, 77 amino acids as printed; In the in vitro synthesis experiment (functional row) the ACP was purified E. coli holo-ACP palmitoylated by V. harveyi AasS; Its construct is described only in the Supplementary Information; also called palmitoyl-ACP; source: endogenous, E. coli BL21(DE3)/pLysS, co-purified with WaaP-His
stoichiometry N: 1
